Assay results taken from publication PMC3084036 (Journal of molecular biology, 2011).
Blank lines part the entries; values can stand above or below the molecule they belong to.

Experiments:
[1] = molecular target: mouse VE-cadherin EC1-2, wild type (mouse); experiment: AUC
[2] = molecular target: human VE-cadherin EC3-4, wild type, bacterially produced (human); experiment: AUC
[3] = molecular target: human VE-cadherin EC3-4, wild type, bacterially produced (human); experiment: SEC
[4] = molecular target: human VE-cadherin EC1-2, wild type (human); experiment: AUC
[5] = molecular target: mouse cadherin-10 EC1-2, wild type (mouse); experiment: AUC
[6] = molecular target: human VE-cadherin EC1-5 ectodomain, wild type, glycosylated (human); experiment: AUC
[7] = molecular target: mouse cadherin-9 EC1-2, wild type (mouse); experiment: AUC
[8] = molecular target: chicken VE-cadherin EC1-2, wild type (chicken); experiment: AUC
AUC = molecular target: the molecule itself; experiment: AUC

Molecule: human VE-cadherin EC1-2, wild type (domain or fragment)
Kd [4]: 4.38 µM

B1: chicken VE-cadherin EC1-5 ectodomain, wild type, glycosylated (domain or fragment)
chain: DWIWNRMHIREEIDSPLPHHVGKLTSSVGNKNAMYIIEGESANTIFKVQGYDGDIYAFERLDREKKAEYELTAHIIDRRNNRSLEPPSKFIIKVSDINDNAPIFVQKIFNGSVPEMSRLGTSVTKVTAEDADDPTVAGHATVTYQIIKGNEYFTVDDSGVIFTARADLDRESQSAYEIIVKAKDALGLTGESSTATVIIRLTDINDNFPVFKHPSFHFRVPENISVGGEVGRVKVEDIDEPQHRNTKYSFVRGDYRDTFEIIANPFTNEGIIRPKKPLDFEKVAEYRFDIEATDHNVNPAYYKPGGSRSISTITIEVTDVDEPPVFTKLSYEFKVRENDPEIKTLGSVWAHDPDAAKRKIRFARRRASPNGDYVRVSDSGIIQLPKPLDREFSSLYNITVAAQEILEDGRLSDRESHAQVHVIVTDENDNAPELVYPEEPRVCENAAPGKVIIRISATDKDEISPGGFFTYSLTTEDSNFSLTENPDNTANITVKDGQFNRELAKIHYLPVIISDNGNPELSSTNTLVISVCKCNEKGDFTFCEE
modifications: glycosylated (N-linked and O-linked sugar)
Kd (AUC): 1.14 ± 0.04 µM

B2: mouse cadherin-8 EC1-3, wild type (domain or fragment)
chain: GWVWNQMFVLEEFSGPEPILVGRLHTDLDPGSKKIKYILSGDGAGTIFQINDITGDIHAIKRLDREEKAEYTLTAQAVDFETNKPLEPPSEFIIKVQDINDNAPEFLNGPYHATVPEMSILGTSVTNVTATDADDPVYGNSAKLVYSILEGQPYFSIEPETAIIKTALPNMDREAKEEYLVVIQAKDMGGHSGGLSGTTTLTVTLTDVNDNPPKFAQSLYHFSVPEDVVLGTAIGRVKANDQDIGENAQSSYDIIDGDGTALFEITSDAQAQDGVIRLRKPLDFETKKSYTLKVEAANIHIDPRFSSRGPFKDTATVKIVVEDADEPPVF
Kd (AUC): 15 ± 0.4 µM

B3: mouse cadherin-11 EC1-2, wild type (domain or fragment)
chain: GWVWNQFFVIEEYTGPDPVLVGRLHSDIDSGDGNIKYILSGEGAGTIFVIDDKSGNIHATKTLDREERAQYTLMAQAVDRDTNRPLEPPSEFIVKVQDINDNPPEFLHEIYHANVPERSNVGTSVIQVTASDADDPTYGNSAKLVYSILEGQPYFSVEAQTGIIRTALPNMDREAKEEYHVVIQAKDMGGHMGGLSGTTKVTITLTD
Kd (AUC): 33.8 ± 0.2 µM

B4: chicken cadherin-6b EC1-2, wild type (domain or fragment)
chain: SWMWNQFFLLEEYTGTDYQYVGKLHSDQDKGDGSLKYILSGDGAGDLFIINENTGDIQATKRLDREEKPVYILRAQAINRRTGRPVEPESEFIIKIHDINDNEPMFTKDVYNASIPEMSDVGTFVVQVTATDADDPTYGNSAKVVYSILQGQPYFSVESETGIIKTALLNMDRENREQYQVVIQAKDMGGQMGGLSGTTTVNITLTDVNDNPPRF
Kd (AUC): 9.2 ± 0.6 µM

Second part, the molecule after the results:

Kd [1]: 2.22 µM
Molecule: mouse VE-cadherin EC1-2, wild type (domain or fragment)

Kd [2]: 1.93 µM | stoichiometry N [3]: 2
Molecule: human VE-cadherin EC3-4, wild type, bacterially produced (domain or fragment)

Kd [5]: 42.2 µM
Molecule: mouse cadherin-10 EC1-2, wild type (domain or fragment)

Kd [6]: 1.03 µM
Molecule: human VE-cadherin EC1-5 ectodomain, wild type, glycosylated (domain or fragment)

Kd [7]: 17 µM
Molecule: mouse cadherin-9 EC1-2, wild type (domain or fragment)

Kd [8]: 1.63 µM
Molecule: chicken VE-cadherin EC1-2, wild type (domain or fragment)
